Measured values: patent US11466255B2, “Methods and compositions for converting non-endocrine pancreatic tissue into insulin-producing cells” (UNIVERSITY OF MIAMI, priority 2015, dated 2022)

Experiments:
[1] = test system: SMAD1/5/8 phosphorylation; assay: SMAD1/5/8 phosphorylation by immunofluorescence in hNEPT; assay type: cell-based, human; conditions: 2 h after the addition of BMP-7 to hNEPT
From the text: In order to study the mechanism behind the effects of BMP-7 on hNEPT preparations, the potential receptors engaged by BMP-7 were studied. BMP-7 binds with high affinity to heteromeric complexes formed by BMPR2 (Bone Morphogenetic Receptor Type II) and the activin-like kinase (ALK) ALK3, ALK6 or ALK2 type I serine/threonine kinase receptors^25. […] These findings are consistent with numerous reports that identify ALK3 as the receptor that mediates BMP-7 function in several biological models of regeneration, including adult liver regrowth^23, differentiation of epidermal Langerhans cells^24 and kidney regeneration and fibrosis reversa1^22. The activation of the canonical BMP signaling pathway entails the phosphorylation of SMAD1/5/8 upon ALK3 engagement.
IF analysis and confocal microscopy: The present study was conducted on human pancreatic samples from cadaveric organ donors. In addition to our own cGMP facility, the Network for Pancreatic Organ Donors with Diabetes (nPOD, www.jdrfnpod.org)55 also provided tissue sections. For IF staining, 5 μm-thick frozen sections or cultured cells were fixed with 4% paraformaldehyde (PFA) for 20 min at room temperature, rinsed with HBSS, washed (3 x 5 min each) with lx Supersensitive Wash Buffer (Biogenex HK583-5K) and then incubated in permeabilization buffer PBSTr [0.2% Triton X-100 (Sigma-Aldrich) in PBS] for 30 min at room temperature. […]

[2] = test system: ALK3+ cells from hNEPT; assay: BMP-7 response of ALK3-enriched / ALK3+-sorted fraction; assay type: cell-based, human
Description: Magnetic bead-based methods (Miltenyi) were used for the enrichment of ALK3+ cells from hNEPT. Both enriched and negative fractions are subsequently plated and treated with BMP-7 or left untreated (controls).
The identity of sorted cells is confirmed by IF, and aliquots are cultured in adherent conditions. Single sorted pancreatic cells are notoriously difficult to culture in plastic, which is addressed by using a combination of Matrigel®-coated plates and fully defined media [STEMPRO® (Thermofisher Scientific, Grand Island, N.Y.) or Kubota's Medium® (PhoenixSongs Biologicals Branford, Conn.)]^8,29,48,49 Matrigel® is used to grow multipotent pancreatic cells^50,51. Colonies from dissociated ALK3^+ cells sorted from fresh hNEPT are readily grown in these conditions, and resemble those obtained from the MPD without sorting. The typical “ring” morphology described by others^50,51 is observed when plating ALK3^+ cells in 3D conditions or fibroblast feeder cells.

B1: BMP-7: 35 kDa homodimeric protein of the TGF-β superfamily; FDA-approved agent; human mature chain SEQ ID NO:1/2 (protein, listed as Homo sapiens)
chain: IRSTGSKQRSQNRSKTPKNQEALRMANVAENSSSDQRQACKKHELYVSFRDLGWQDWIIAPEGYAAYYCEGECAFPLNSYMNATNHAIVQTLVHFINPETVPKPCCAPTQLNAISVLYFDDSSNVILKKYRNMVVRACGCH
modifications: homodimer; human mature chain of BMP-7 (NCBI Reference Sequence NM_001719.2) comprising peptide from 293-431
With B1 as the molecule, how does the “SMAD1/5/8 phosphorylation in ALK3-expressing cells” value [1] read?
The value was “presented SMAD1/5/8 phosphorylation”.

And the “increase in insulin expression vs. non-BMP-7 treated controls” value ([2]; ALK3+-sorted cells, preliminary qRT-PCR)?
Its value is 10^3 fold.

What about the “response in terms of C-peptide production” value ([2]; magnetic bead ALK3-enriched fraction, only this fraction responds) of the same molecule?
The value was “BMP-7-responsive”.
